# Assay results published in patent US20220088148A1 (HANMI PHARM, published 2022).
# Bridges are numbered along the chain shown (N, C = ends). Where no end group is shown, it is not given here. [ ]: non-standard residue; d: D form. The star is where a group is joined. Acetyl(2-(4-imidazolyl)) = O=C(Cc1c[nH]cn1)*; Aib = CC(C)(N)C(=O)O
# T1: human GIP receptor (human, UniProt P48546 22-466)
# T1 sequence (looked up): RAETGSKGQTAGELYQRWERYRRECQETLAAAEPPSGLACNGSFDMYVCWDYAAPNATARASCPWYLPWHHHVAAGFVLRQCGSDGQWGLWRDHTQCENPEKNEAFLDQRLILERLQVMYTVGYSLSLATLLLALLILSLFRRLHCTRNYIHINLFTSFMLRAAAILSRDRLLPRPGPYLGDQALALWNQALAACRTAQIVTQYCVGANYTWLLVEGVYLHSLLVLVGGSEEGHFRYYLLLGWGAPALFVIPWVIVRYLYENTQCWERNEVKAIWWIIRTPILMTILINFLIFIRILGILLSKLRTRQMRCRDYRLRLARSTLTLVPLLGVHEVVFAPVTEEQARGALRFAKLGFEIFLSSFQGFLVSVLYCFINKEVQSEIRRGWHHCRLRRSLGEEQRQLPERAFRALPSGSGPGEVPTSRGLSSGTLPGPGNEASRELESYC
# How the values were obtained:
# Assay in all cases: cell-based or functional assay
# human GIP receptor = target: T1, human GIP receptor
# human GLP-1 receptor = human GLP-1 receptor (human, UniProt P43220 24-463)
# human GCG receptor = human GCG receptor (human, UniProt P47871 26-477)
# Chain of human GCG receptor (P47871 26-477): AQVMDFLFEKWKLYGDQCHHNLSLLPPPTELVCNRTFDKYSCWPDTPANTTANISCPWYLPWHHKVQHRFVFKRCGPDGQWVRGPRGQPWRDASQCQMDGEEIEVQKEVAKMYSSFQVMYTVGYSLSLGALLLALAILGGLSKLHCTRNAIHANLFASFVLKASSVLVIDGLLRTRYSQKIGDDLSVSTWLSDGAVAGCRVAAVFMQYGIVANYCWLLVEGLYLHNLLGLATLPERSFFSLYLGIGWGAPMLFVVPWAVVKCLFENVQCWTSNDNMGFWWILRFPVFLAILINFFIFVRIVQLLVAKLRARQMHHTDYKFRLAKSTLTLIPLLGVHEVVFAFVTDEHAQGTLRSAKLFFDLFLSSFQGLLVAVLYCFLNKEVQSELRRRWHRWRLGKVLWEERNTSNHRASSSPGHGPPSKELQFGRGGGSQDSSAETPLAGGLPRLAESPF
Binder,"In vitro activity (%) vs. GIP, cAMP EC50 (human GIP receptor)","In vitro activity (%) vs. GLP-1, cAMP EC50 (human GLP-1 receptor)","In vitro activity (%) vs. Glucagon, cAMP EC50 (human GCG receptor)"
{Acetyl(2-(4-imidazolyl))}-[Aib]QGTFTSDYSKYLDEKRQKEFVQWLLDTC (bridge 15-19) [triple agonist of SEQ ID NO: 82],< 0.1%,9.5%,1.1%
Y[Aib]QGTFTSDYSKYLDECRAKDFVQWLLDHHPSSGQPPPS (bridge 16-20; ends not checked) [triple agonist of SEQ ID NO: 66],17.2%,15.8%,172%
{Acetyl(2-(4-imidazolyl))}-[Aib]QGTFTSDYSKYLDEKRQKEFVQWLLDTKC (bridge 15-19) [triple agonist of SEQ ID NO: 89],< 0.1%,7.1%,0.7%
H[Aib]EGTFTSDYSIAMDEIHQKDFVNWLLAQKC (bridge 16-20) [triple agonist of SEQ ID NO: 79],1.4%,41.5%,4.9%
{Acetyl(2-(4-imidazolyl))}-[Aib]QGTFTSDYSKYLDEKRQKEFVNWLLAQC (bridge 15-19) [triple agonist of SEQ ID NO: 86],0.2%,28.4%,0.4%
Y[Aib]QGTFTSDYSKYLDEKAAKEFVQWLLDHHPSSGQPPPSC (bridge 16-20) [triple agonist of SEQ ID NO: 75],18%,35.1%,8.5%
[Acetyl(2-(4-imidazolyl))][Aib]QGTFTSDYSKYLDECRAKEFVQWLLDHHPSSGQPPPS (bridge 16-20; ends not checked) [triple agonist of SEQ ID NO: 73],3%,22.6%,5.4%
{Acetyl(2-(4-imidazolyl))}-[Aib]EGTFTSDYSIAMDEIHQKDFVDWLLAEC (bridge 15-19) [triple agonist of SEQ ID NO: 84],< 0.1%,4.2%,< 0.1%
Y[Aib]QGTFTSDYSKCLDEKAAKEFVQWLLDHHPSSGQPPPS (bridge 16-20; ends not checked) [triple agonist of SEQ ID NO: 68],107%,27.9%,8.8%
{Acetyl(2-(4-imidazolyl))}-[Aib]QGTFTSDYSKCLDEKRAKEFVQWLLDHHPSSGQPPPS (bridge 15-19) [triple agonist of SEQ ID NO: 74],1%,12.9%,0.9%
[Acetyl(2-(4-imidazolyl))][Aib]EGTFTSDYSIAMDEIHQKDFVNWLLAQC (bridge 16-20) [triple agonist of SEQ ID NO: 83],0.4%,47.3%,1.3%
H[Aib]EGTFTSDYSIAMDEIHQKDFVDWLLAEKC (bridge 16-20) [triple agonist of SEQ ID NO: 80],0.1%,8.1%,0%
Y[Aib]QGTFTSDYSKCLDERAAKEFVQWLLDHHPSSGQPPPS (bridge 16-20; ends not checked) [triple agonist of SEQ ID NO: 69],62.8%,24.3%,9.6%
